Key:
[1] = biological target: adaptor protein 2 (AP-2) complex; test: ELISA-based peptide binding assay; conditions: read off a plot
[2] = biological target: HLA-E (wild type, EGFP at the C-terminus) (human)

Substance | percentage of internalized HLA-E that reappeared on the cell surface within 1 h (recycling assay, HEK293T, peptide pulsing 50 µM) [2] [%] | also measured
CD1b cytoplasmic tail peptide (CD1) (from UniProt P29016) Y5A | – | response (absorbance 450) ([1]; parent: est. 0.86): 0.64
HLA-E cytoplasmic tail peptide (E) (from UniProt P13747) K310R; K322Q; W325S | – | response (absorbance 450) ([1]; parent: est. 1.5): 0.83
Mtb44 peptide | 18 | –
RL9 peptide | 15 | –
VL9 peptide | 25 | –

— paper PMC12582296
